Numbering of substitutions follows the chain as printed. Where two headings read alike, the source gives them in different places. Each block holds one binder with its values, some of them ahead of it.
Columns and labels:
mouse IL-25 [1] = target: T1, mouse IL-25 (mouse, UniProt Q8VHH8 17-169)
T1 chain: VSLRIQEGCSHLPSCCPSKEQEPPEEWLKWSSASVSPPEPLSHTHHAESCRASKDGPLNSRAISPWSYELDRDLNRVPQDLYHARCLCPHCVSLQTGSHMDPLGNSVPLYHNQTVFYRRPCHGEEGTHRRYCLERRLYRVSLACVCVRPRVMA

[2] = target: T2, recombinant human IL-25 (R&D Systems) (human, UniProt Q9H293 33-177)
T2 chain: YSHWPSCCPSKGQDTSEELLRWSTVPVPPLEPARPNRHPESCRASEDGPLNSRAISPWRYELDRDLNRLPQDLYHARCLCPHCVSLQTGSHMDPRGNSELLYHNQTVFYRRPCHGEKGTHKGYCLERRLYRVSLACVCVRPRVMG

hABM125.9 = assay: SPR
hABM125.10 = assay: SPR
mouse IL-25 [3] = target: T1, mouse IL-25; assay: SPR

Kd (mouse IL-25 [1]): 0.028 nM
B1: ABM109.2 (antibody, V domains shown)
VH: QVQLVQSGAEVKKPGASVKVSCKASGYTFSSYWIEWVRQAPGQGLEWIGQILPGIGSTNYNEKFKGRVTITADTSTSTVYMELSSLRSEDTAVYYCARGYGNYGDYWGQGTTVTVSS
VL: DIVLTQSPASLAVSPGQRATITCRASESVDSYGNSFMHWYQQKPGQPPKLLIYRASNLESGVPARFSGSGSGTDFTLTINPVEAQDTANYYCQQSNEDPLTFGAGTKLELKR

Kd [2]: 0.004 nM
B2: ABM 109 (antibody, V domains shown)
VH: EVKVVESGADLMKPGASVKISCKATGYTFSSYWIEWVKQRPGHGLEWIGQILPGIGSTNYNEKFKGKATFTADTSSNTAYMQLSSLTSEDSAVYYCARGYGNYGDYWGQGTTVTVSS
VL: B1 VL with P15L, T22S, V62I, G72R, Q85D, T87V, N89T

Kd (hABM125.9): 0.733 nM
Kd (hABM125.10): 1.06 nM
B3: mouse IL-25 (NS0) (ligand)
chain: T1 chain

Kd (mouse IL-25 [3]): 0.0073 nM
B4: ABM125 (antibody, V domains shown)
VH: QVTLKVSGPGILQPSQTLSLTCSFSGFSLNTSGMGVGWIRQPSGKGLEWLAHIWWDDVKRYNPALKSRLTISKDTSGSQVFLKIASVDTADTATYYCARTLPHFFDYWGQGTTLTVSS
VL: DIQMTQSPAIMSASPGEKVTISCSASSSVSYMYWYQQKSGSSPKPWIYRTSNLASGVPARFSGSGSGTSYSLTISSMEAEDAATYYCKQYHSYPPTWTFGGGTKLEIKR

From US20200291105A1 (published 2020)
